Source: the supplement of paper PMC10065799, “High-throughput profiling of sequence recognition by tyrosine kinases and SH2 domains using bacterial peptide display” (eLife, 2023)

Tests used:
[1] = system: AncSZ; experiment: phosphorylation enrichment, bacterial display (enrichment ratio); higher = better substrate or ligand; peptides without Tyr show the background
[2] = target: EPHB1 (UniProt P54762); experiment: as above
[3] = target: EPHB2 (UniProt P29323); experiment: as above
[4] = target: FGFR1 (UniProt P11362); experiment: as above
[5] = target: FGFR3 (UniProt P22607); experiment: as above
[6] = system: Fer (mouse); experiment: as above
[7] = target: Fes (UniProt P07332); experiment: as above
[8] = target: Fyn (UniProt P06241); experiment: as above
[9] = target: Hck (UniProt P08631); experiment: as above
[10] = target: Jak2 (UniProt O60674); experiment: as above
[11] = target: MERTK (UniProt Q12866); experiment: as above
[12] = system: c-Abl (mouse); experiment: as above
[13] = system: c-Src; experiment: as above
[14] = target: Grb2 SH2 (UniProt P62993); experiment: SH2 binding enrichment of the phosphorylated peptide, bacterial display (enrichment ratio); higher = better substrate or ligand; peptides without Tyr show the background
[15] = target: SHP2-C SH2; experiment: as above
[16] = target: c-Src SH2; experiment: as above
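Wherever SH2 binding enrichment of the phosphorylated peptide, bacterial display is given: peptide library displayed on the E. coli surface as eCPX fusions, selected cells deep-sequenced, score is each peptide's frequency after selection divided by its frequency in the input.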
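Wherever phosphorylation enrichment, bacterial display is given: 11-residue human phosphosite peptides and single-mutation variants displayed on the E. coli surface, counted by deep sequencing, each peptide's frequency after selection divided by its frequency in the unselected input library; frequency after pTyr selection over input frequency; kinase dosed for 20-30% of maximal phosphorylation in three min.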

Chain of EPHB2 (P29323 whole entry, looked up): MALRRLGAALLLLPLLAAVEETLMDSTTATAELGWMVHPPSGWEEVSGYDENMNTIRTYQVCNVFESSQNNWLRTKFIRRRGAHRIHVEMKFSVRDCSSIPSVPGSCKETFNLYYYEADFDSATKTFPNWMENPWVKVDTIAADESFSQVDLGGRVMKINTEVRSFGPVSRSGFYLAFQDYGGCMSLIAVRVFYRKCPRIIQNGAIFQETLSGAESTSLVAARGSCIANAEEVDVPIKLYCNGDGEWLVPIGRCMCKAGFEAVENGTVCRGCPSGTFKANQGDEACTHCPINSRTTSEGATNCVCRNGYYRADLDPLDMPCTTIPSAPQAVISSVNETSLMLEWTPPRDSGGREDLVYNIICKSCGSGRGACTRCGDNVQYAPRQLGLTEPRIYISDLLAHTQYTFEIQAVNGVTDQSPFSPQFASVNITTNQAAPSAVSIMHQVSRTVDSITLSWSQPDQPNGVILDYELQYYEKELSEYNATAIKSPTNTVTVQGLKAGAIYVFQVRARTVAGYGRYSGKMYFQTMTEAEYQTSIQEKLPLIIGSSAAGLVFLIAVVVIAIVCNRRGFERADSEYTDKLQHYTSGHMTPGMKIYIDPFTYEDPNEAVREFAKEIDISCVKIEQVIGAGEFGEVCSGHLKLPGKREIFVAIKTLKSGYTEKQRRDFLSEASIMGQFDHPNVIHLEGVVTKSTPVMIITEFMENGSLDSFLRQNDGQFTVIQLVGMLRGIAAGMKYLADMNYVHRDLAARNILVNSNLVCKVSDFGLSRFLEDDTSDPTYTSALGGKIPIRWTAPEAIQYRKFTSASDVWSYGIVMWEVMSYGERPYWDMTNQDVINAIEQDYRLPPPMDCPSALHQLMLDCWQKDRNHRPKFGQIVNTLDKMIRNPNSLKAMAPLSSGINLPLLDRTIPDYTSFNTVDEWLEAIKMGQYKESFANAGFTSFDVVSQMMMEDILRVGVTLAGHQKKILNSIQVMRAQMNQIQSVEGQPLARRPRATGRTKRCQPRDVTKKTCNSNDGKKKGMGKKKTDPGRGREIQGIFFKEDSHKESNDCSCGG
Chain of Jak2 (O60674 whole entry, looked up): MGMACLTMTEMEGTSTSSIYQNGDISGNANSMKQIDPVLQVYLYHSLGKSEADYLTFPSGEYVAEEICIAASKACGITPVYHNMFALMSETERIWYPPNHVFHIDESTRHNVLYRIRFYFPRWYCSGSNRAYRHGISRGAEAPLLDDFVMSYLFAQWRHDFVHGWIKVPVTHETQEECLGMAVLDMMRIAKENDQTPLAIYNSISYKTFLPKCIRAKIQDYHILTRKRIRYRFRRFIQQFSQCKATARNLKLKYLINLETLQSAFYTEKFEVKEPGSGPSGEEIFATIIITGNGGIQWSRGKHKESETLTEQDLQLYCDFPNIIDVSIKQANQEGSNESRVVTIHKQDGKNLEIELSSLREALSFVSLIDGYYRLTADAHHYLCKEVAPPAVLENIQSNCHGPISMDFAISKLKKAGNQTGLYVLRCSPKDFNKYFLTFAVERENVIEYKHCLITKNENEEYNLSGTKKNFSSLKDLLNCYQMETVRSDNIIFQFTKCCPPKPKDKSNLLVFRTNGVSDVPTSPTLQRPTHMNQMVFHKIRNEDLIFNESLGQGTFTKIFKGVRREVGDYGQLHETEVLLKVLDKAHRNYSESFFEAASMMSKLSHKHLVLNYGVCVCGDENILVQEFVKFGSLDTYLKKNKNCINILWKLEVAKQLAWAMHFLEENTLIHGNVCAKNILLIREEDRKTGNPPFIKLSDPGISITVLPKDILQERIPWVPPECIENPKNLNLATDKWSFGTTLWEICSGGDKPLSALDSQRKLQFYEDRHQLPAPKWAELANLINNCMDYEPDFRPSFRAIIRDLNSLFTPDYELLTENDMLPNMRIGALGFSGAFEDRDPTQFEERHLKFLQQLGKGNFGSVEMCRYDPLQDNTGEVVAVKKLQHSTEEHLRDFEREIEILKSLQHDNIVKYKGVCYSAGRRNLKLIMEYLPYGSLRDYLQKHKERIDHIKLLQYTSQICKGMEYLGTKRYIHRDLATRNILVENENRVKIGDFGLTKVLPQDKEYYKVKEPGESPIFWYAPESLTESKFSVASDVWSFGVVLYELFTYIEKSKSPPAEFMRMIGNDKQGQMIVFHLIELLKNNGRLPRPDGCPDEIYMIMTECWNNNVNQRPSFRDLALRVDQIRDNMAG
Chain of Fes (P07332 whole entry, looked up): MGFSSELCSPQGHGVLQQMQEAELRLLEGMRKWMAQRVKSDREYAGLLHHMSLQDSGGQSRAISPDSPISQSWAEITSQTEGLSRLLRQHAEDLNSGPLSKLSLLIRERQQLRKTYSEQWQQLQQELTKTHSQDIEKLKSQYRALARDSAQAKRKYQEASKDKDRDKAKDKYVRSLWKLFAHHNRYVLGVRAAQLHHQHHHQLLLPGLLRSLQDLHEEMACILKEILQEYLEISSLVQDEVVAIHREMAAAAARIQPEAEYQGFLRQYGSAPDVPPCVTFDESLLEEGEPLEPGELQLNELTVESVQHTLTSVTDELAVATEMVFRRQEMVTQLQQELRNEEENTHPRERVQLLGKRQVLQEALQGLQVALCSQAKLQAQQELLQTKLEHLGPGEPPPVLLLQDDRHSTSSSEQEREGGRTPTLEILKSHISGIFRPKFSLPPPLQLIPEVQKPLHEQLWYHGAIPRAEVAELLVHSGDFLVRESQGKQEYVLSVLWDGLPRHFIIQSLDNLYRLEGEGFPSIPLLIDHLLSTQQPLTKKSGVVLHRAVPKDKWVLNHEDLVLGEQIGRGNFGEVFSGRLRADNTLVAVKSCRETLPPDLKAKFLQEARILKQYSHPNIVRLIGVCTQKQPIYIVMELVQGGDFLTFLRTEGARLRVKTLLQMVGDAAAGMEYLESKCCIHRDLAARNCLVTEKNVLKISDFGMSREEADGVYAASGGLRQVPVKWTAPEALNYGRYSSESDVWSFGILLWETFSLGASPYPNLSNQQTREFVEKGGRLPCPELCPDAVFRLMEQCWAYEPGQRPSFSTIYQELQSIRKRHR
Chain of Hck (P08631 whole entry, looked up): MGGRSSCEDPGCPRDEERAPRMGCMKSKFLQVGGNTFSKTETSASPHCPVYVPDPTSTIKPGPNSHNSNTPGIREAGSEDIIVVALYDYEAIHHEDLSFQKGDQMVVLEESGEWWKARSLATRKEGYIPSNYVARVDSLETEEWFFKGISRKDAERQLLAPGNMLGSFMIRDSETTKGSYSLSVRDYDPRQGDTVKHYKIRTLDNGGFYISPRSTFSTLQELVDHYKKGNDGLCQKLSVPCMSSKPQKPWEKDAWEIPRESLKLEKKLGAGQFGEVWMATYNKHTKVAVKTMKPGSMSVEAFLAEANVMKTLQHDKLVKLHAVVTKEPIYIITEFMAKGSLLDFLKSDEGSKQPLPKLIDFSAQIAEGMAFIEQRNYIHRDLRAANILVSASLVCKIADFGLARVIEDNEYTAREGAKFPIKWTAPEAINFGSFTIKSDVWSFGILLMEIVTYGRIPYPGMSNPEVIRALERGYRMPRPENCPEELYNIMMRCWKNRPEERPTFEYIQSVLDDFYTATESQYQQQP
Chain of EPHB1 (P54762 whole entry, looked up): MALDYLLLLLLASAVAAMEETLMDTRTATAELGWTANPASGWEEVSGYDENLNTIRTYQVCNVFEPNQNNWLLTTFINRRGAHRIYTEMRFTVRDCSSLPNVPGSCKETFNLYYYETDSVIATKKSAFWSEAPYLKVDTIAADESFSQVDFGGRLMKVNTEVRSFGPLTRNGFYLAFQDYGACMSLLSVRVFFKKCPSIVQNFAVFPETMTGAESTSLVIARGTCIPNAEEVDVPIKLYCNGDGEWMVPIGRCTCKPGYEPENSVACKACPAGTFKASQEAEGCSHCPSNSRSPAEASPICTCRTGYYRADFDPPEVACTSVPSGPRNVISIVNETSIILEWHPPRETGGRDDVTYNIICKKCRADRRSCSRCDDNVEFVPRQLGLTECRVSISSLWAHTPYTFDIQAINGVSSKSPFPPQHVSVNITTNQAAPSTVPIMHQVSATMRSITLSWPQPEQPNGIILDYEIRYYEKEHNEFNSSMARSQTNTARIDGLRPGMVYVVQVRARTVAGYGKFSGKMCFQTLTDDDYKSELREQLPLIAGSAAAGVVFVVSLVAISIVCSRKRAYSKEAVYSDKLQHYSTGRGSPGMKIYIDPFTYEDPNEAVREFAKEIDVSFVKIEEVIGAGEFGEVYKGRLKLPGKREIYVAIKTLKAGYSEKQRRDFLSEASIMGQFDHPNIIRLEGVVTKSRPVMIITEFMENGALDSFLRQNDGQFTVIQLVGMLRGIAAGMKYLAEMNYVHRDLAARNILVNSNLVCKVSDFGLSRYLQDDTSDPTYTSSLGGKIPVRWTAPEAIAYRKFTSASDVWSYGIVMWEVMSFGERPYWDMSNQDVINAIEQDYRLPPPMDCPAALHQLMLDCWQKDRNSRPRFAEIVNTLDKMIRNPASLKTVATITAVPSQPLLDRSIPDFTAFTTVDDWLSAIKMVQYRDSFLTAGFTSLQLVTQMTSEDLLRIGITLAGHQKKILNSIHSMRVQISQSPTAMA
Chain of Fyn (P06241 whole entry, looked up): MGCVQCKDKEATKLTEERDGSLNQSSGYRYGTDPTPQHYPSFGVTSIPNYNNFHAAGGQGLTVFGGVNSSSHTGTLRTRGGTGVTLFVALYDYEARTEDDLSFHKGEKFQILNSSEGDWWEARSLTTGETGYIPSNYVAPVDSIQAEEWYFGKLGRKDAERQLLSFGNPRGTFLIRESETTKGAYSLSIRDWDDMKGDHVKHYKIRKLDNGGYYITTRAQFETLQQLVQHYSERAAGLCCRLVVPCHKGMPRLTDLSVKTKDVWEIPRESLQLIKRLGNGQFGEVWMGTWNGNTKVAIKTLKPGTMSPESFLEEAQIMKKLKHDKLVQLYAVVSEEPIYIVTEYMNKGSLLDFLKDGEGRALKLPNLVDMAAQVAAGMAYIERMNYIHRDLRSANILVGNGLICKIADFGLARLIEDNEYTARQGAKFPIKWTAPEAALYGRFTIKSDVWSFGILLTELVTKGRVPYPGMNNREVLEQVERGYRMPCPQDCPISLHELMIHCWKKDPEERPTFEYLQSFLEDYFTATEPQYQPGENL

| Sequence | phosphorylation enrichment [1] | phosphorylation enrichment [2] | phosphorylation enrichment [3] | phosphorylation enrichment [4] | phosphorylation enrichment [5] | phosphorylation enrichment [6] | phosphorylation enrichment [7] | phosphorylation enrichment [8] | phosphorylation enrichment [9] | phosphorylation enrichment [10] | phosphorylation enrichment [11] | phosphorylation enrichment [12] | phosphorylation enrichment [13] | SH2 binding enrichment [14] | SH2 binding enrichment [15] | SH2 binding enrichment [16] |
| --- | --- | --- | --- | --- | --- | --- | --- | --- | --- | --- | --- | --- | --- | --- | --- | --- |
| LRNIDYHRLDG [ATRX_Y2083_Y2084H] | 0.497 | 0.42 | 0.405 | 0.511 | 0.617 | 0.571 | 0.606 | 0.342 | 0.33 | 0.632 | 0.379 | 0.521 | 0.297 | 0.725 | 1.25 | 0.714 |
| SLAARYFNWVC [FLT4_Y1230_S1235C_YF] | 1.21 | 0.61 | 0.656 | 0.661 | 0.822 | 0.546 | 1.2 | 0.38 | 0.435 | 0.997 | 0.514 | 0.899 | 0.397 | 2.08 | 1.59 | 1.43 |
| CTTIHYNFMSN [TP53_Y234_C238S_YF] | 1.12 | 0.621 | 0.58 | 0.561 | 0.745 | 0.562 | 1.24 | 0.437 | 0.545 | 1.07 | 0.527 | 0.833 | 0.483 | 0.851 | 0.835 | 0.743 |
| CLSHCYFSQIR [MCM3AP_Y873_L870S] | 0.727 | 0.41 | 0.497 | 0.573 | 0.607 | 0.388 | 0.758 | 0.354 | 0.363 | 0.623 | 0.485 | 0.484 | 0.432 | 1.22 | 1.15 | 1.23 |
| KFFRVYQGQQP [MUTYH_Y494_V490F] | 0.898 | 0.452 | 0.507 | 0.592 | 0.78 | 0.431 | 0.842 | 0.623 | 0.495 | 0.627 | 0.447 | 0.652 | 0.457 | 0.953 | 0.596 | 0.633 |
| ATHSGYRLNDF [CLDN14_Y233_YF] | 0.587 | 0.472 | 0.514 | 0.322 | 0.538 | 0.361 | 0.601 | 0.419 | 0.391 | 0.558 | 0.42 | 0.906 | 0.453 | 1.04 | 0.542 | 0.421 |
| GPKSTYISSAA [GOLGA5_Y62] | 0.731 | 0.331 | 0.506 | 0.414 | 0.51 | 0.403 | 0.7 | 0.467 | 0.492 | 0.638 | 0.565 | 0.488 | 0.508 | 0.715 | 0.52 | 0.403 |
| SARSAYQEAID [SFN_Y151_M155I] | 1.02 | 0.461 | 0.405 | 0.573 | 0.685 | 0.395 | 0.994 | 0.434 | 0.523 | 0.875 | 0.471 | 0.83 | 0.516 | 0.896 | 0.705 | 1.06 |
| VNNLVYENING [FRS2_Y306_K303N] | 1.17 | 11.8 | 4.94 | 0.57 | 0.576 | 11.8 | 2.21 | 6.01 | 7.03 | 0.571 | 5.31 | 0.703 | 5.42 | 5.57 | 1.35 | 2.29 |
| PPVVNYEQDAR [FER_Y402_E404Q] | 1.33 | 1.01 | 0.534 | 0.69 | 1.29 | 0.679 | 1.18 | 0.636 | 0.628 | 1.49 | 0.541 | 0.767 | 0.646 | 0.879 | 0.826 | 0.728 |
| NNDLCYWVPEL [IARS1_Y434] | 2.86 | 4.43 | 5.52 | 5.92 | 5.02 | 0.643 | 1.22 | 1.92 | 2.13 | 3.15 | 4.55 | 8.63 | 2.17 | 0.813 | 0.791 | 0.514 |
| MYVKSYTIHYS [F5_Y2153] | 1.03 | 0.723 | 0.732 | 0.542 | 0.815 | 0.508 | 1.17 | 0.492 | 0.516 | 0.86 | 0.446 | 0.674 | 0.425 | 0.666 | 0.826 | 0.443 |
| KKYPDYIQIAR [SGMS2_Y59_M64R] | 0.98 | 7.96 | 1.22 | 3.97 | 2.55 | 0.388 | 0.984 | 0.367 | 0.48 | 1.28 | 0.392 | 0.702 | 0.47 | 1.23 | 0.808 | 0.858 |
| EPYEVYRIVPE [IRF8_Y110_K108E] | 3.39 | 1.45 | 1.9 | 4.53 | 3.35 | 8.85 | 1.15 | 6.69 | 4.62 | 0.994 | 1.05 | 1.25 | 6.54 | 0.981 | 0.758 | 0.578 |
| FVSIVYNDFGE [TSC2_Y1650_S1653F] | 1.21 | 0.605 | 0.665 | 0.561 | 0.801 | 0.514 | 1.16 | 0.599 | 0.642 | 0.991 | 0.422 | 0.725 | 0.856 | 1.96 | 1.68 | 1.52 |
| NTGFFYDLFGG [PTPN11_Y63_D61Y_YF] | 1.24 | 0.693 | 0.659 | 0.509 | 0.786 | 0.77 | 1.31 | 2.42 | 1.52 | 1.19 | 3.4 | 0.869 | 2.85 | 1.51 | 1.66 | 0.98 |
| LDCNEYFRDLN [HPRT1_Y198_Y195C] | 1.82 | 0.933 | 0.922 | 0.966 | 1.34 | 0.697 | 1.73 | 0.906 | 0.911 | 1.5 | 0.687 | 1.15 | 0.487 | 1.07 | 0.927 | 0.704 |
